This note sets out measurements from publication PMC9907207 (Nature Communications, 2023).

Read-outs that look alike come from different tables or passages of the source.

Broadly, the Kd is the equilibrium constant for the complex coming apart. A high value points to weaker binding.

One assay concerns the target bat RaTG12-CoV RBD (Bat coronavirus RaTG13 (printed as …, UniProt A0ABF7PLN6)).
Assay [1] concerns the target T1, SARS-CoV-2 RBD (residues 319-541), ancestral strain (SARS-CoV-2, UniProt P0DTC2).
The target of a further assay is SARS-CoV-1 RBD (SARS-CoV (SARS-CoV-1), isolate not …, UniProt P59594).
The target of assay [2] is T2, C-terminally His-tagged SARS-CoV-2 RBD (residues 333-528) (SARS-CoV-2, UniProt P0DTC2).
T2 construct: source: expressed and purified as for the other RBDs (Expi293, Talon resin)
As to the kind of experiment: crystal structure. Particulars: both partners purified.

The target of assay [3] is T1, SARS-CoV-2 RBD (residues 319-541), …. As to the kind of experiment: BLI. Conditions: both partners purified.

B1: GAR01 (antibody, V domains shown)
VH: QVQLVQSEGGVVQPGRSLRLSCTASGFTFSSYGMHWVRQAPGKGLEWVALISYDGSDKYYADSVKGRFTISRDNSKNTLYLQMNSLRPEDTAVFYCAKGGWYGSSSGFDYWGQGTLVTVSS
VL: DIQMTQSPSSLSASVGDRVTITCQASQDISNYLNWYQQKPGKAPKLLIYDASNLETGVPSRFSGSGSGTDFIFTISSLQPEDIATYYCQQYHDVPRTFGQGTKVEIK
In the case of B1, the binding result (with bat RaTG12-CoV RBD; in assay [1]; in the assay with SARS-CoV-1 RBD) was “binds” in each case.

B2: GAR03 Fab (Fab, V domains shown)
VH: QVQLVQSGAEVKKPGASVKVSCKASGYTFSSYDINWVRQAPGQGLEWMGWMSPNSGNTGYAQKFQGRVTMTRSTSMSTAYMELSSLRSEDTAVYFCARMSSSLTNYLDYWGQGTLVTVSS
VL: SYVLTQPPSVAVAPGQTARIRCGENDIGSKNVHWYQQKSGQAPVLVVYDDSDRPSGIPERFSGSNSGNTATLTISRVEAGDEADYYCQVWDSTGDHPDVVFGGGTKLTVL
notes: also called GAR03 antibody Fab; source: ExpiCHO, purified (Talon resin, S200 SEC)
Regarding B2, in assay [2], the binding result is reported as “binds”.

B3: GAR04 (antibody, V domains shown)
VH: QVQLVQSGAEVKKSGASVKVSCKASGYTFTGYHMHWVRQAPGQGLEWMGWINPKSDGTNSAQKFQGRVTMTRDTSISTAYMELSRLRSDDTAVYYCARLAVREYYDNSGFYRKTTDAFDLWGQGTMVTVSS
VL: DIVMTQSPDSLAVSLGERATINCKSSQSVLYNSNNKNYLAWYQQKPGQPPKLLIYWASTRESGVPDRFSGSGSGTDFTLTINSLQAEDVAVYYCQQYSITTPPITFGQGTRLEIK
In the case of B3, the binding result in assay [1] was “binds”.

B4: S2H97, class 5 monoclonal antibody (antibody, V domains shown)
VH: QVRLVQSGAEVKKSGESLKISCKGSGYSFTSYWIGWVRQMPGKGLEWMGIIYPGDSDTRYSPSFQGQVTISADKSISTVYLQWSSLKASDTAMYYCARQWSHYTYDYYYWGQGTLVTISS
VL: QSVLTQPASVSGSPGQSITISCTGISSDVGGYNSVSWYQQHPGKAPKLMIYDVTNRPSGVSNRFSGSKSGNTASLTISGLQAEDEADYYCSSYTSSSTPPYVFGTGTKVSVL
With B4, in assay [3], the binding result is recorded as “binds”.

B5: GAR05, human IgG1 monoclonal antibody (antibody, V domains shown)
VH: EVQLVQSGGDLVQPGGSLRLSCAVSGFTVSRNYMTWVRQAPGRGLEWVSLIYPGGSAFYADSVKGRFTISRDNSKNTLYLQMNSLRVEDTAVYYCARDPVSTGHYHDSDYWGQGTLVTVSS
VL: DIQMTQSPSALSASVGDRVTITCQASQDINKFLNWYQQKPGKAPKLLIYDASNLETGVPSRFSGGGSGTDFTFTISSLQPEDIATYYCHQYDNLPRTFGQGTKVELK
notes: source: ExpiCHO, purified (Protein G resin)
In assay [3], B5 returned a Kd of 0.54 nM.

B6: GAR07 (antibody, V domains shown)
VH: EVQLVQSGGGLVQPGGSLRLSCAASEFIVSSNYMSWVRQAPGKGLEWVSVIYSGGSTFYADSVKGRFTISRDNSKNTLHLQMNSLRVEDTAVYYCARDRGDRFDYWGQGTLVTVSS
VL: not shown
Consider B6, for which the binding result in assay [1] was “binds”.

B7: GAR20 (antibody, V domains shown)
VH: QVQLQQWGAGLLKPSETLSLTCAVYGGSFSDFYWSWIRQPPGKGLEWIGQIDHSGSPNYNPSLKSRVTMSVDTSKNHFSLRLTSMTAADTAVYYCAKGPRYGSGSFDPLGQGTLVTVSS
VL: SYELTQPPSVSVAPGQTARITCGGDNIGSKTVHWYQQKPGQAPVLVVYDDGDRPSGIPERFSGSNPGNTATLTISRVEAGDEADYYCQVWDSSSDSVVFGGGTELTVL
With B7, the binding result (with bat RaTG12-CoV RBD; in assay [1]; with SARS-CoV-1 RBD) was “binds” each time.

B8: GAR15 (antibody, V domains shown)
VH: EVQLVESGGGLVQPGGSLRLSCAASGLTVSSNYMSWVRQAPGKGLEWVSVIYSGGSTFYADSVKGRFTISRHNSKNTLYLQMNSLRGDDTAVYYCARDLIYYGMDVWGQGTTVTVSS
VL: DIVMTQSPSSLSASVGDRVTITCRASQGISSSLAWYQQNPGKPPKLLIYAASTLQSGVPSRFSGSGSGTDFTLTISSLQPEDFATYYCQQLNSDLYTFGQGTKVEIK
Turning to B8, in assay [1], the binding result is “binds”.

B9: GAR11 (antibody, V domains shown)
VH: EVQLVQSGTEVKKPGSSVKVSCEASGGTFSKYAITWVRQAPGQGLEWMGGIIPIFGTANYAQKFQDRVKITADEITSIAYMELNSLSSEDTAVYYCARDNRGRGFGEILSYYYGMDVWGQGTTVTVSS
VL: SALTQPASVSGSPGQSITISCTGTSSDVGGYNYVSWYQQHPGKAPKLMIYDVATRPSGVSDRFSGSKSGNTASLTISGLQAEDEADYYCSSYTSSNTLAFGGGTKLTVL
On to B9, for which the binding result (in the assay with bat RaTG12-CoV RBD; in assay [1]; in the assay with SARS-CoV-1 RBD) was “binds” throughout.

B10: GAR09 (antibody, V domains shown)
VH: EVQLVESGGGLVQPGGSLRLSCAASGFTVSYNYMSWVRQAPGKGLEWVSLIYSGGSTYYADSVKGRFTISRDSSKNTLYLQMNSLRVEDTAVYYCAREVPSRSGWSGGQGTLVTVSS
VL: DIVMTQSPSSLSASVGDRVTITCQASQDMNKYLNWYQQKPGKAPKLLIYDASNLETGVPSRFSGSGSGTNFTFTISSLQPEDIATYYCQQYDNLPPVFGPGTKVEIK
Turning to B10, the binding result in assay [1] is “binds”.

B11: GAR18 (antibody, V domains shown)
VH: QVQLQESGPGLVKPSETLSLTCTVSGGSISDYYWSWIRQPPGKGLEWIGYIHGSGGTNYNPSLKSRVTILVDTSKNELSLKLSSVTTADTAVYYCARDDMISGLGYYGMDVWGQGTTVTVSS
VL: EIVMTQSPATLSLSPGERVTLSCRASQSVSSYLAWYQQKPGQAPRLLIYDASNRATGIPARFSGSGSGTDFTLTISSLEPEDFAVYYCQQRSNWPSTFGPGTKVDIK
For the molecule B11, the binding result in assay [1] is reported as “binds”.

B12: GAR14 (antibody, V domains shown)
VH: EVQLVESGGGLVQPGGSLRLSCAASGFTFSRYDMHWVRQTTGKGLEWVSAIGTAGDTYYPDSVKGRFTISRENAKNSLHLQMNSLRVGDTAVYFCARAVDCSDISCYSNWYFDLWGRGTLVTVSS
VL: DIQLTQSPSSLSASVGDRVTITCRASQTISSFLNWYQQKPGKAPHLLIYAASSLQSGVPSRFSGSGSGTDFTLTITNLQPEDFATYYCQQSYSTPPITFGQGTRLEIK
On to B12, for which the binding result (in the assay with bat RaTG12-CoV RBD; in assay [1]; in the assay with SARS-CoV-1 RBD) was “binds” each time.

B13: GAR12 Fab (Fab, V domains shown)
VH: EVQLVQSGGGLVQPGGSLRLSCAASGFTFSSYAMSWVRQAPGKGLEWVLSISGSGGSTYYADSVKGRFTISIDNSKKTVYLQMNSLRAEDTAVYYCAKSGEQQLVQAEYFHHWGQGTLVTVSS
VL: DIQMTQSPSTLSASVGDRVTITCRASQSIGRWLAWYQQKPGKAPKLLIYDASSLESGVPSRFSGSGFGTEFTLTISSLQPDDFATYYCQQCDSLLTFGGGTKLEIK
notes: also called GAR12 Fab fragment; source: ExpiCHO, purified (Talon resin, S200 SEC)
B13: the binding result in assay [2] is given as “binds”.

B14: GAR12, human IgG1 monoclonal antibody (antibody, V domains shown)
VH: EVQLVQSGGGLVQPGGSLRLSCAASGFTFSSYAMSWVRQAPGKGLEWVLSISGSGGSTYYADSVKGRFTISIDNSKKTVYLQMNSLRAEDTAVYYCAKSGEQQLVQAEYFHHWGQGTLVTVSS
VL: DIQMTQSPSTLSASVGDRVTITCRASQSIGRWLAWYQQKPGKAPKLLIYDASSLESGVPSRFSGSGFGTEFTLTISSLQPDDFATYYCQQCDSLLTFGGGTKLEIK
notes: as for B5
As for B14, the binding result in assay [3] is listed as “binds”.

B15: GAR17 (antibody, V domains shown)
VH: EVQLVESGGGLGQPGGSLRLSCAASGFNFSNYAMSWVRQAPGKGLEWISTVGGSGDSTYYADSVKGRFTISIDNSKNRLYLQMNSLRSEDTAVYYCAKELAVMPPYFYYYAMDVWGQGTTVTVSS
VL: QPVLTQPPSASGTPGQRVTISCSGTTSNVGSTYVYWYQQLPGTAPKLLIYRYNQRPSGVPDRFSGSKSGTSASLVISGLRSDDEAVYYCATWDDSRHVVFGGGTKLTVL
As for B15, in assay [1], the binding result was “binds”.

B16: GAR16 (antibody, V domains shown)
VH: EVQLVESGGGVVQPGGSLRLSCAASGFTFSNYDMHWVRQATGKGLEWVSAIGTAGDTYYPDSVKGRFTISRDNAKNSLYLQMNSLRAEDTAVYYCTRVVHSSDWTSWSAGIHNWFDSWGQGTLVTVSS
VL: DIVMTQSPSSLSASVGDRVSITCRTSQSIRTYLNWYQQKPGKAPKLLIYASSSLQSGVPSRFSGSGSGTDFTLSISSLQPEDFATYYCQQSYSMPPWTFGQGTKLEIK
As for B16, the binding result (with bat RaTG12-CoV RBD; in assay [1]; with SARS-CoV-1 RBD) was “binds” each time.

B17: 10G4 Fab (Fab, V domains shown)
VH: QVQLVESGGGVVQPGRSLRLSCAASGFTFSSYGMHWVRQAPGKGLEWVAVIWYDGSDKYYADSVKGRFTISRDNSKNTLYLQINSLRAEDTAMYYCAREATAGFDYWGQGNLVTVSS
VL: NIQMTQSPSAMSASVGDRVTITCRARQDISSYLAWFQQKPGKVPKHLIYAASTLLSGVPSRFSGSGSGTEFTLTISSLQPEDFATYYCLQHNSYPYTFGQGTKLEIN
notes: also called additional antibody Fab (10G4)
B17: the binding result in assay [2] is on record as “binds”.

B18: GAR06 (antibody, V domains shown)
VH: QVTLRESGPALVKPTQTLTLTCTFSGFSVSSAGMCVSWIRQPPGKALEWLARIDWDDDKYYSTSLRTRLTISTDTSKNQVVLTMTNMDPVDTATYYCARTTMTTSYYFDSWGQGTLVTVSS
VL: QSALTQPRSVSGSPGQSVTISCTGTSSDVGGYDYVSWYQHHPGKAPKVVLYDVTKRPSGVPDRFSGSKSGNTASLTISGLQAEDEADYYCCSYAGSYAGVFGTGTKVTVL
As to B18, the binding result in assay [1] is “binds”.

B19: GAR13 (antibody, V domains shown)
VH: EVQLVESGGGLVQPGGSLRLSCAASGFTFSNYDMHWVRQVTGKGLEWVSLIGTSGDTYYPGSVKGRFTISRDNAKNSLYLQMNSLRADDTAVYYCVRAAFDDHNIYSWFDSWGQGTLVTVSS
VL: DIQMTQSPSSLSASVGDRVTITCRASQSIGRYLNWYQQKPGKAPKLLIYTASSLQSGVPSRFSGSGSGTEFTLTISSLQPEDFATYYCQQSYNIPPLTFGGGTKVEIK
Regarding B19, the binding result (with bat RaTG12-CoV RBD; in assay [1]; in the assay with SARS-CoV-1 RBD) was “binds” throughout.
